Tests used:
[1] = tested on: AxCT mask27 EGFR EH104 L071 version 1
[2] = tested on: AxCT mask27 EpCAM H90.2 L061 version 1
[3] = tested on: AxCT mask27 EGFR EH104 L060 version 1
[4] = tested on: AxCT mask27 EGFR EH104 L040 version 1
[5] = tested on: AxCT mask27 EGFR EH104 L068 version 1
[6] = tested on: AxCT mask27 EGFR EH104 L064 version 1
[7] = tested on: AxCT mask27 EGFR EH104 L066 version 1
[8] = tested on: AxCT mask27 EGFR EH104 L065 version 1
[9] = tested on: AxCT mask27 EGFR EH104 L061 version 1
[10] = tested on: AxCT mask27 EpCAM H90.2 L076 version 1
[11] = tested on: AxCT mask27 EpCAM H90.2 L043 version 1
[12] = tested on: AxCT mask27 EGFR EH104 L056 version 1
[13] = tested on: AxCT mask27 EGFR EH104 L062 version 1
[14] = tested on: AxCT mask27 EGFR EH104 L058 version 1
[15] = tested on: AxCT mask27 EpCAM H90.2 L063 version 1
[16] = tested on: AxCT mask27 EpCAM H90.2 L064 version 1
[17] = tested on: AxCT mask27 EpCAM H90.2 L075 version 1
[18] = tested on: AxCT mask27 EGFR EH104 L063 version 1
[19] = tested on: AxCT mask27 EGFR EH104 L069 version 1
[20] = tested on: AxCT mask27 EpCAM H90.2 L073 version 1
[21] = tested on: AxCT mask27 EGFR EH104 L073 version 1
[22] = tested on: AxCT mask27 EGFR EH104 L041 version 1
[23] = tested on: AxCT mask27 EGFR EH104 L072 version 1
[24] = tested on: AxCT mask27 EGFR EH104 L057 version 1
[25] = tested on: AxCT mask27 EGFR EH104 L054 version 1
[26] = tested on: AxCT mask27 EGFR EH104 L001 version 1
[27] = tested on: AxCT mask27 EGFR EH104 L067 version 1
[28] = tested on: AxCT mask27 EGFR EH104 L059 version 1
[29] = tested on: AxCT mask27 EGFR EH104 L043 version 1
[30] = tested on: AxCT mask27 EpCAM H90.2 L059 version 1
[31] = tested on: AxCT mask27 EpCAM H90.2 L060 version 1
[32] = tested on: AxCT mask27 EGFR EH104 L055 version 1
[33] = tested on: AxCT mask27 EpCAM H90 L001 version 1
[34] = tested on: AxCT mask27 EpCAM H90.2 NCLV
[35] = tested on: AxCT mask27 EpCAM H90.2 L040 version 1
[36] = tested on: AxCT mask27 EGFR EH104 L070 version 1
[37] = tested on: AxCT mask27 EpCAM H90.2 L041 version 1

Sequence of MMP-8 (chain, as listed by the source): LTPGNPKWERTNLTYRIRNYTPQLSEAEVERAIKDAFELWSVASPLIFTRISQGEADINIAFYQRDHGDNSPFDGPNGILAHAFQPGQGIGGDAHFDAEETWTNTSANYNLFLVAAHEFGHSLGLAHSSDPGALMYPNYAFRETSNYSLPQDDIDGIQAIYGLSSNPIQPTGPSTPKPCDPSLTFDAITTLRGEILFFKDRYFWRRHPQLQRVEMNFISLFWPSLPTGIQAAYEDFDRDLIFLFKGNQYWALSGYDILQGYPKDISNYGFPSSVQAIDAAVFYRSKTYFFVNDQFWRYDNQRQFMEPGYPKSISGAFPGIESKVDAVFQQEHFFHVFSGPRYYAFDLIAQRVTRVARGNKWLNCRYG
Sequence of MMP-9 (chain, as listed by the source): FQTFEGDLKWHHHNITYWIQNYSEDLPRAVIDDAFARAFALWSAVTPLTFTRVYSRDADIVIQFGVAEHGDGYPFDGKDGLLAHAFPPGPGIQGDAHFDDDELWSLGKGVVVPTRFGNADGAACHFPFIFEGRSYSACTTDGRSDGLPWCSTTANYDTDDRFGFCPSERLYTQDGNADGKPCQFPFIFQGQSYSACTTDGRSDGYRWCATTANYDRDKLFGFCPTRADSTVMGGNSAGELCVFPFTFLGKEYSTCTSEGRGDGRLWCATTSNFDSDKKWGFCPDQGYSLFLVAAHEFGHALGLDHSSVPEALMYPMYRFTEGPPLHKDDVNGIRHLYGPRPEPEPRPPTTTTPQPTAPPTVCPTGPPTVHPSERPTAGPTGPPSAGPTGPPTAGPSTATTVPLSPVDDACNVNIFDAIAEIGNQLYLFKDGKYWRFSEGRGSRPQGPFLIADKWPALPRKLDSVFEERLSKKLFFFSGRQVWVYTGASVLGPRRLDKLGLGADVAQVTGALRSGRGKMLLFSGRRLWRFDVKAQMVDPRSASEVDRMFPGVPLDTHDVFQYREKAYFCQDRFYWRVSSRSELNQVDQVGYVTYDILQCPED

Substance | Percent cleavage [1] | Percent cleavage [2] | Percent cleavage [3] | Percent cleavage [4] | Percent cleavage [5] | Percent cleavage [6] | Percent cleavage [7] | Percent cleavage [8] | Percent cleavage [9] | Percent cleavage [10] | Percent cleavage [11] | Percent cleavage [12] | Percent cleavage [13] | Percent cleavage [14] | Percent cleavage [15] | Percent cleavage [16] | Percent cleavage [17] | Percent cleavage [18] | Percent cleavage [19] | Percent cleavage [20] | other results
MMP-9 | 46% | 36% | 7% | 63% | 19% | 13% | 29% | 70% | 54% | 17% | 7% | 52% | 63% | 27% | 8% | 0% | 0% | 21% | 29% | 0% | Percent cleavage [21]: 11%; Percent cleavage [22]: 59%; Percent cleavage [23]: 51%; Percent cleavage [24]: 57%; Percent cleavage [25]: 9%; Percent cleavage [26]: 74%; Percent cleavage [27]: 50%; Percent cleavage [28]: 32%; Percent cleavage [29]: 20%; Percent cleavage [30]: 19%; Percent cleavage [31]: 0%; Percent cleavage [32]: 75%; Percent cleavage [33]: 80%; Percent cleavage [34]: 0%; Percent cleavage [35]: 60%; Percent cleavage [36]: 0%; Percent cleavage [37]: 57%
MMP-8 | 20% | 25% | 0% | 6% | 0% | 7% | 0% | 18% | 15% | 0% | 0% | 7% | 6% | 0% | 0% | 8% | 0% | 0% | 16% | 0% | Percent cleavage [21]: 0%; Percent cleavage [22]: 0%; Percent cleavage [23]: 0%; Percent cleavage [24]: 11%; Percent cleavage [25]: 8%; Percent cleavage [26]: 44%; Percent cleavage [27]: 13%; Percent cleavage [28]: 18%; Percent cleavage [29]: 0%; Percent cleavage [30]: 25%; Percent cleavage [31]: 0%; Percent cleavage [32]: 29%; Percent cleavage [33]: 61%; Percent cleavage [34]: 0%; Percent cleavage [35]: 0%; Percent cleavage [36]: 0%; Percent cleavage [37]: 0%
